Data published in article PMC3183022 (Molecular Biology of the Cell, 2011).

Legend:
[1] = target: His-tagged retrolinkin (aa 31–460) (mouse, UniProt Q8BHE4 31-460); assay: pull-down
[2] = target: mouse retrolinkin amino-terminus (amino acids 31–460) fused to GST (mouse, UniProt Q8BHE4 31-460); assay: pull-down
mouse retrolinkin amino-terminus (amino acids 31–460) fused to GST, sequence (Q8BHE4 31-460): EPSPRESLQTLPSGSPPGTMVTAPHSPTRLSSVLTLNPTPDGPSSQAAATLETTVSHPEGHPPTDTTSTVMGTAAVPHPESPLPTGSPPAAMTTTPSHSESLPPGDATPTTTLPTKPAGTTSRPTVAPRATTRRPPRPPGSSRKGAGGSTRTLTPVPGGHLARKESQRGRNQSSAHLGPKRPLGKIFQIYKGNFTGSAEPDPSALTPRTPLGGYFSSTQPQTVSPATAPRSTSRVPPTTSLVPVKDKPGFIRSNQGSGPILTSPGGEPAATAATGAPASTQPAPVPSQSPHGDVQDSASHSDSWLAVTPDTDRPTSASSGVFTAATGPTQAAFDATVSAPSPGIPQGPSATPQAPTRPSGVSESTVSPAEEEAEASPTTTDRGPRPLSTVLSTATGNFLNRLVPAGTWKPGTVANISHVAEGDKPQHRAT

His-tagged retrolinkin (aa 31–460), sequence (Q8BHE4 31-460): as above

Binder	binding result [1]	binding result [2]
GST-tagged endophilin A1 SH3 domain (aa 295–346) (domain or fragment) not shown	binds	
recombinant His-tagged endophilin A1 (natural protein, mouse, UniProt Q62420 1-352, looked up) MSVAGLKKQFHKATQKVSEKVGGAEGTKLDDDFKEMERKVDVTSRAVMEIMTKTIEYLQPNPASRAKLSMINTMSKIRGQEKGPGYPQAEALLAEAMLKFGRELGDDCNFGPALGEVGEAMRELSEVKDSLDMEVKQNFIDPLQNLHDKDLREIQHHLKKLEGRRLDFDYKKKRQGKIPDEELRQALEKFDESKEIAESSMFNLLEMDIEQVSQLSALVQAQLEYHKQAVQILQQVTVRLEERIRQASSQPRREYQPKPRMSLEFATGDSTQPNGGLSHTGTPKPPGVQMDQPCCRALYDFEPENEGELGFKEGDIITLTNQIDENWYEGMLHGQSGFFPINYVEILVALPH		binds
